ATIII activity by thrombin inhibition (two-stage colorimetric endpoint assay), milk data for one substance are collected here from patent US20030177513A1.

The assay has as its target thrombin. Briefly: cell-based or functional assay.

On to “recombinant human Antithrombin III (ATIII) in the milk of the cloned transgenic goat CFF6-1 (from UniProt P01008 33-464)”, for which the ATIII activity by thrombin inhibition (two-stage colorimetric endpoint assay), milk at day 5 worked out at 20.5 U/ml and the ATIII activity by thrombin inhibition (two-stage colorimetric endpoint assay), milk at day 9 stood at 14.6 U/ml.
